The source of these data is publication doi:10.1101/2023.03.16.532763 (bioRxiv, 2023).

This experiment has as its target purified full-length Polθ (UniProt O75417 1-2590). Nature of the experiment: co-IP.

purified full-length Polθ, sequence (O75417 whole entry): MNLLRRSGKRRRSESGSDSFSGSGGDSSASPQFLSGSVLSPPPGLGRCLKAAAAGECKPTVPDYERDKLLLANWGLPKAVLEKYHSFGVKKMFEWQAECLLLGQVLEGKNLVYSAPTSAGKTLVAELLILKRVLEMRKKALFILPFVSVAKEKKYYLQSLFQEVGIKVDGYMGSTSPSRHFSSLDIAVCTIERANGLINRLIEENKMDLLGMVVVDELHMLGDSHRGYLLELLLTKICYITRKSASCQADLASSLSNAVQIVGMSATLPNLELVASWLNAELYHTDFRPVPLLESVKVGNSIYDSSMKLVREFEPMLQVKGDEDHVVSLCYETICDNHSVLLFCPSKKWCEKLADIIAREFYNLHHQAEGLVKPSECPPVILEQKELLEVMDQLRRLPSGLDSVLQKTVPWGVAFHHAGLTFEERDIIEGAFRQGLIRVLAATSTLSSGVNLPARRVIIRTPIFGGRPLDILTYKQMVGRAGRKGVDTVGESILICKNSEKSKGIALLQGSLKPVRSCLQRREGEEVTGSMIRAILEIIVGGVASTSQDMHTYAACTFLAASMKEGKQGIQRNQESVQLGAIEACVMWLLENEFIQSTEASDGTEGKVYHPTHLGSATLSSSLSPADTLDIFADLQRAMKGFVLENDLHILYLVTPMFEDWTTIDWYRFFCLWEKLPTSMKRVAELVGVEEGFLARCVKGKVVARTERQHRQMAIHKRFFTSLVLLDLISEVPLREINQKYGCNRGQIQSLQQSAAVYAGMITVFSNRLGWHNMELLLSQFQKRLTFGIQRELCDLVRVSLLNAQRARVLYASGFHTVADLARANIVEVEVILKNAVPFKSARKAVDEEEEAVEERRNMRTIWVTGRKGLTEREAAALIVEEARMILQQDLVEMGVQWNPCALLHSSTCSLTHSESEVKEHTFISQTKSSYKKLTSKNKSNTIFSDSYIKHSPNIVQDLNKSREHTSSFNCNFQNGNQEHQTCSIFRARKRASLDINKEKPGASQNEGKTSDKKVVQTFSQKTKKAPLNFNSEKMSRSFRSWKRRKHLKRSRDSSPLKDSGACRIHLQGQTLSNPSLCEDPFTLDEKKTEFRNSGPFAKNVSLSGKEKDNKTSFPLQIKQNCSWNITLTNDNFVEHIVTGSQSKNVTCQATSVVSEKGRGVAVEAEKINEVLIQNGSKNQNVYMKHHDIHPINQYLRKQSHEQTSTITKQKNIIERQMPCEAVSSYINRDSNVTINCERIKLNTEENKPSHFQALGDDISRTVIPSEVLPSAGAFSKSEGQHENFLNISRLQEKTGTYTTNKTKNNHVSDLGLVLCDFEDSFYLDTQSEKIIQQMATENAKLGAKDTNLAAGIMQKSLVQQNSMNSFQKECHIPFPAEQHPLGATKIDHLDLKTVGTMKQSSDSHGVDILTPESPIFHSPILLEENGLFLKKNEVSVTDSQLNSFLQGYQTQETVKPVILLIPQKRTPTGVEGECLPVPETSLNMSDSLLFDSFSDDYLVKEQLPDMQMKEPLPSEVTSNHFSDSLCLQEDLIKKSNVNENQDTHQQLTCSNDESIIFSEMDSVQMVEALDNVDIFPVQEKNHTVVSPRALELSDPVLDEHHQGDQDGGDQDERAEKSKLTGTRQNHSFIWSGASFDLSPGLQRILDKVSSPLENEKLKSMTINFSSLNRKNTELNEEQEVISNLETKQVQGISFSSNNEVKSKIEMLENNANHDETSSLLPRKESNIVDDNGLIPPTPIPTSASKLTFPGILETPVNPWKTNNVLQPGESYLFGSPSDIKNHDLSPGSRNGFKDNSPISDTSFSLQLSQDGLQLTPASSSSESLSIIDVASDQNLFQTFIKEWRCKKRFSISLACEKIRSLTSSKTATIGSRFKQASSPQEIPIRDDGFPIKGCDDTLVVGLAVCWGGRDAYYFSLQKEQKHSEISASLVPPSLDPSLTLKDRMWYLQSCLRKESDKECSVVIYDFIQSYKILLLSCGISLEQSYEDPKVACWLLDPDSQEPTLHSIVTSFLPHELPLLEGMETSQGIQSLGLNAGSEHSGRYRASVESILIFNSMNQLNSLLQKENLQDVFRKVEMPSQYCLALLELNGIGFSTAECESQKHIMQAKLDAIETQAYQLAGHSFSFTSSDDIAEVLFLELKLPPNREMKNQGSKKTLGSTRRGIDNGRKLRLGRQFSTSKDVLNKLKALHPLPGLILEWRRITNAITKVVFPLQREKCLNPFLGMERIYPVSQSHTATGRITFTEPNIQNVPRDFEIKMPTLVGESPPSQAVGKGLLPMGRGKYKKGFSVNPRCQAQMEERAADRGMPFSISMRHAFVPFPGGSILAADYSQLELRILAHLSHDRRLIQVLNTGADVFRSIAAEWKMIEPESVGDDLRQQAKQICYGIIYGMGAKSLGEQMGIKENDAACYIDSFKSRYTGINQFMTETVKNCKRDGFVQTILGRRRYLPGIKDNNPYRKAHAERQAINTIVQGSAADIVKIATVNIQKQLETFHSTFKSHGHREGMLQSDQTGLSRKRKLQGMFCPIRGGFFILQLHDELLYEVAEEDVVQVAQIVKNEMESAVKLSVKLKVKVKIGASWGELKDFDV

B1: purified recombinant human RHINO protein (natural protein, UniProt Q9BSD3 1-238, looked up)
chain: MPPRKKRRQPSQKAPLLFHQQPLEGPKHSCASTQLPITHTRQVPSKPIDHSTITSWVSPDFDTAAGSLFPAYQKHQNRARHSSRKPTTSKFPHLTFESPQSSSSETLGIPLIRECPSESEKDVSRRPLVPVLSPQSCGNMSVQALQSLPYVFIPPDIQTPESSSVKEELIPQDQKENSLLSCTLHTGTPNSPEPGPVLVKDTPEDKYGIKVTWRRRQHLLAYLRERGKLSRSQFLVKS
Turning to B1, the binding result is on record as “binds”.
